From publication PMC10457294 (Nature Communications, 2023)

B2: VACV M2 (vaccinia virus M2), recombinant, His-tagged (natural protein)
chain: VEYKNTICPPRQDYRYWYFAAELTIGVNYDINSTIIGECHMSESYIDRNANIVLTGYGLEINMTIMDTDQRFVAAAEGVGKDNKLSVLLFTTQRLDKVHHNISVTITCMEMNCGTTKYDSDLPESIHKSSSCDITINGSCVTCVNLETDPTKINPHYLHPKDKYLYHNSEYGMRGSYGVTFIDELNQCLLDIKELSYDICYRE

Key:
[1] = biological target: B2; experiment: far-Western, overlay or dot blot; details: both partners purified
[2] = biological target: T1, human B7.2 ectodomain fused to human Fc (human, UniProt P42081-1 26-238); experiment: far-Western, overlay or dot blot; details: both partners purified
T1 construct: also called hB7.2-Fc; hB7.2-hFc; not shown: Fc (human), C-terminal, kept
T1 sequence (looked up): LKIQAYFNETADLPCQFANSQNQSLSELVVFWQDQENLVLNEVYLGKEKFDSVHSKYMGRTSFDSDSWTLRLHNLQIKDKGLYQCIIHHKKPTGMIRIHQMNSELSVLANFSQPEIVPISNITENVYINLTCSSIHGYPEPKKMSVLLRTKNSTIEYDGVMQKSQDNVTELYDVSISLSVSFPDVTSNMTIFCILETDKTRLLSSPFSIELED

[3] = biological target: the molecule itself; experiment: non-reducing against reducing SDS-PAGE

B1: human B7.1 ectodomain fused to human Fc (Fc fusion, UniProt P33681-1 35-234, looked up)
chain: VIHVTKEVKEVATLSCGHNVSVEELAQTRIYWQKEKKMVLTMMSGDMNIWPEYKNRTIFDITNNLSIVILALRPSDEGTYECVVLKYEKDAFKREHLAEVTLSVKADFPTPSISDFEIPTSNIRRIICSTSGGFPEPHLSWLENGEELNAINTTVSQDPETELYAVSSKLDFNMTTNHSFMCLIKYGHLRVNQTFNWNTT
notes: also called hB7.1-Fc; hB7.1-hFc; not shown: Fc (human), C-terminal, kept
**Q.** Does B1 bind [1]?
**A.** binds

**Q.** Does B2 bind [2]?
**A.** binds

**Q.** Does B2 bind [3]?
**A.** binds
